Data from patent US20250075190A1, “DE NOVO DESIGNED LUCIFERASE” (UNIVERSITY OF WASHINGTON, priority 2022, published 2025).
Changes are numbered by the printed parent chain. Names and notes keep the numbering of the source.

B1: native Renilla reniformis luciferase (RLuc) (Renilla reniformis) (protein)
chain: MTSKVYDPEQRKRMITGPQWWARCKQMNVLDSFINYYDSEKHAENAVIFLHGNAASSYLWRHVVPHIEPVARCIIPDLIGMGKSGKSGNGSYRLLDHYKYLTAWFELLNLPKKIIFVGHDWGACLAFHYSYEHQDKIKAIVHAESVVDVIESWDEWPDIEEDIALIKSEEGEKMVLENNFFVETMLPSKIMRKLEPEEFAAYLEPFKEKGEVRRPTLSWPREIPLVKGGKPDVVQIVRNYNAYLRASDDLPKMFIESDPGFFSNAIVEGAKKFPNTEFVKVKGLHFSQEDAPDEMGKYIKSFVERVLKNEQ
notes: host and tag of RLuc not clearly stated
B2: LuxSit: de novo designed DTZ luciferase, 117 residues, SEQ ID NO:1 (protein)
chain: MSEEQIRQFLRRFYEALDSGDADTAASLFHPGVTIHLWDGVTFTSREEFREWFERLFSTRKDAQREIKSLEVRGDTVEVHVQLHATHNGQKHTVDATHHWHFRGNRVTEMRVHINPTG
modifications: VARIANT 1 optionally absent; VARIANT 118 optionally absent
B3: A96M: LuxSit mutant A96M (protein)
chain: B2 chain with A96M
modifications: VARIANT 1 optionally absent; VARIANT 118 optionally absent
B4: LuxSit-f: LuxSit variant A96M/M110V, SEQ ID NO:3, strong initial flash emission (protein)
chain: B2 chain with A96M, M110V
modifications: VARIANT 1 optionally absent; VARIANT 118 optionally absent
B5: M110V: LuxSit mutant M110V (protein)
chain: B2 chain with M110V
modifications: VARIANT 1 optionally absent; VARIANT 118 optionally absent

Assays:
[1] = substrate: Oc1ccc(Cc2nc3c(Cc4ccccc4)nc(-c4ccc(O)cc4)cn3c2O)cc1; experiment: Michaelis-Menten kinetics of native Renilla luciferase (RLuc) with CTZ; assay type: biochemical, Renilla reniformis; settings: other: substrate CTZ; Table 3; pH 8.0
Excerpt: (§1) Synthetic genes and oligonucleotides were purchased from Integrated DNA Technologies or GenScript. The synthetic gene was inserted between NdeI and XhoI sites of a pET29b+ vector, containing an N-terminal hexahistidine tag followed by a TEV protease cleavage site and a C-terminal stop codon. Restriction endonucleases, Q5 PCR polymerase, and T4 ligase were purchased from NEB. Plasmid DNA, PCR products, or digested fragments were purified by Qiagen DNA purification kits. DNA sequences were analyzed by Genewiz. Coelenterazine (CTZ) was purchased from Gold Biotechnology. Diphenylterazine (DTZ), pyridyl diphenylterazine (8pyDTZ), and Furimazine (FRZ) were purchased from MedChemExpress. […] DNA and protein concentrations were determined by a NanoDrop™ small-volume 8 channel UV/vis spectrometer. […] All luminescence measurements were acquired by a Biotek Synergy Neo2T™ Multi-Mode Plate Reader. To convert relative arbitrary unit (RLU) to the number of photons, Neo2 plate reader was calibrated by determining the chemiluminescence of luminol with known quantum yield in the presence of horseradish peroxidase and hydrogen peroxide in K2CO3 aqueous solution as previously described^45. SDS PAGE and luminescence images were captured by a Bio-Rad ChemiDocT™ XRS+. Images were analyzed using the Fiji image analysis software.
For Michaelis-Menten kinetics measurements, 25 μL of serial diluted DTZ substrate in Tris pH 8.0 buffer was added into the wells of a white 96-well half-area microplate containing 25 μL of purified luciferases (final enzyme concentration: 100 nM; substrate concentration: 0.78 to 50 μM). […] The luminescence signals were monitored until the reactions were completed (0.1 s integration and measurements were taken every 5 s for a total of 40 min). […] In vitro luminescence activity measurements of LuxSit-i expressing HEK293T or HeLa cells were done similarly as 15,000 intact cells or lysates were used in the assay instead of purified luciferases. […]

[2] = Circular dichroism spectra and thermal denaturation; assay type: physicochemical; settings: 220 nm, 25° C. to 95° C.
Excerpt: as §1
Purified protein samples were prepared at 15 μM in pH 7.4 10 mM phosphate buffer. Spectra from 190 nm to 260 nm were recorded at 25° C., 50° C., 75° C., 95° C., and after cooling back to 25° C. Thermal denaturation was monitored at 220 nm from 25° C. to 95° C. […]

[3] = Luciferase activities of re-designed sequences based on LuxSit-i (Table 1); assay type: biochemical; settings: LuxSit-f and re-designed sequences based on LuxSit-i (Table 1)
Excerpt: In another embodiment, the proteins comprise an amino acid sequence at least 30%, 35%, 40%, 45%, 50%, 55%, 60%, 65%, 70%, 75%, 80%, 85%, 90%, 91%, 92%, 93%, 94%, 95%, 96%, 97%, 98%, 99%, or 100% identical to the amino acid selected from the group consisting of SEQ ID NO:1-181, as shown in Table 1. SEQ ID NO:5-181 in Table 1 are re-designed amino acid sequences based on LuxSit-i (SEQ ID NO:2), with their luciferase activities shown.

[4] = for Relative emission intensity: integrated luminescence intensity over the first 20 min, normalized to LuxSit, 25 μM DTZ in Tris pH 8.0 buffer; for increase of activity over LuxSit: DTZ
Protocol: Each colony was expressed individually in each well of 96-well plates (1 mL culture) and purified accordingly (see Methods). (a) Individual luminescence activity of each selected mutant was plotted and compared to the parent LuxSit. Luminescence activities were measured in the presence of 25 μM DTZ. Luminescence activity (RLU) was shown as the integrated signal over the first 15 min. Statistical analysis of the amino acid frequency versus the luciferase activity at residue (b) 60, (c) 96, and (d) 110.
The cells were plated on 150 mm×15 mm LB agar plates supplemented with carbenicillin and L-arabinose, incubated at 37° C. overnight, and left at 4° C. for another 24 h. As described in the screening of luciferase libraries, colony-based screening by spraying DTZ solution was used to identify active colonies. […] The plates were shaken at 37 C overnight (˜16-18 h) on 96-well plate shakers at 1,100 rpm. Cells were pelleted by centrifugation at 4,000 g for 15 min in a tabletop centrifuge. Media was discarded and the cell pellets were resuspended in 0.2 mL BugBuster HT Protein Extraction buffer. The plates were transferred back to 96-well plate shakers and incubated at 1,100 rpm for an additional 30 min. Cellular debris was pelleted again by centrifugation at 4,000 g for 15 min, soluble lysates were transferred to a new semi-deep 96-well plate, and incubated with 10 μL of magnetic Ni-NTA beads for 30 min to allow binding. The magnetic extractor was used to first transfer the beads from the binding plates to wash plates with 200 μL IMAC wash buffer in each well, and then transfer the beads to elusion plates containing 30 μL IMAC elution buffer in each well. The concentrations of all proteins in each well were determined by the Bradford assay directly. The elution solution in each well was used to make a 25 μL protein solution at indicated concentration and mixed with 25 μL of 50 μM DTZ PBS solution. The luminescence signals were acquired over a course of 15 min while the actual point mutation was identified by sequencing.

[5] = Luminescent quantum yield of LuxSit variants; assay type: biochemical; settings: consuming 125 pmol of DTZ in PBS with 50 nM recombinant luciferase; estimated relative to reported quantum yield of RLuc; mean ± s.d., n = 3
Protocol: FIG. 10. Additional characterization of LuxSit variants. (a) Normalized emission kinetics of 15,000 intact HeLa cells expressing LuxSit-i, 100 nM purified LuxSit-i, or 100 nM purified LuxSit-f in the presence of 50 μM DTZ. The more extended emission kinetics in HeLa cells is likely due to the diffusion rate of DTZ across cell membranes. […] (c) Luminescent quantum yield was estimated from the integrated luminescence signal until completely converting 125 pmol substrates to photons in the presence of 50 nM corresponding luciferase (see Methods). All data points were plotted as the average of triplicate measurements.
For Michaelis-Menten kinetics measurements, 25 μL of serial diluted DTZ substrate in Tris pH 8.0 buffer was added into the wells of a white 96-well half-area microplate containing 25 μL of purified luciferases (final enzyme concentration: 100 nM; substrate concentration: 0.78 to 50 μM). […] The luminescence signals were monitored until the reactions were completed (0.1 s integration and measurements were taken every 5 s for a total of 40 min). […] In vitro luminescence activity measurements of LuxSit-i expressing HEK293T or HeLa cells were done similarly as 15,000 intact cells or lysates were used in the assay instead of purified luciferases. […] Data were shown as the total luminescence signal over the first 10 min. […]

[6] = Michaelis-Menten kinetics measurements of purified luciferases; assay type: biochemical; settings: DTZ; mean (95% CI), n = 3
Protocol: For Michaelis-Menten kinetics measurements, 25 μL of serial diluted DTZ substrate in Tris pH 8.0 buffer was added into the wells of a white 96-well half-area microplate containing 25 μL of purified luciferases (final enzyme concentration: 100 nM; substrate concentration: 0.78 to 50 μM). Measurements were taken every 1 min (0.1 s integration and 10 s shaking between each interval) for a total of 20 min. Initial velocities were estimated as the average of the light intensities from the first three data points to fit the Michaelis-Menten equation. All relative arbitrary unit (RLU) per second values were converted to photon/s by the luminol-H2O2—HRP calibration method^45. Following the equation: Imax=LQY×kcat×[E], Imax is the maximal photon flux (photon s^−1), [E] is the total enzyme concentration, and V ax is the maximum photon flux per molecule (photon s^−1 molecule^−1) from the fitting of the Michaelis-Menten equation. To determine the luminescent quantum yields, 25 μL of 5 μM individual substrate in PBS was injected into 25 μL PBS containing 100 nM corresponding luciferase. DTZ was used for all LuxSit variants while CTZ was used as the substrate of native RLuc. The luminescence signals were monitored until the reactions were completed (0.1 s integration and measurements were taken every 5 s for a total of 40 min). […] To record emission spectra, 25 μL of 50 μM DTZ in PBS were injected into 25 μL of 200 nM pure luciferases and the emission spectra were collected with 0.1 s integration and 2 nm increments from 300 to 700 num. In vitro luminescence activity measurements of LuxSit-i expressing HEK293T or HeLa cells were done similarly as 15,000 intact cells or lysates were used in the assay instead of purified luciferases. To evaluate the substrate specificity, 25 μL of 50 μM substrate analogs in PBS were added to 25 μL of 200 nM indicated luciferases, and the signals were recorded over 20 min. Data were shown as the total luminescence signal over the first 10 min. We normalized the data by setting the highest emission substrate at 100%.

Row | Molecule | thermal stability (CD melting) [2] | Activity [3] | Relative emission intensity [4] | increase of activity over LuxSit [4] [fold] | further results
1 | B1 | – | – | – | – | Km [1]: 1.5 µM; kcat [1]: 4.9 s⁻¹; kcat/Km [1]: 3.3e+06 M⁻¹ s⁻¹
2 | B2 | not fully unfolded at 95 °C | 75.3 | 1 | – | –
3 | B3 | – | – | 16.4 | 16 | –
4 | B4 | thermostable | 534.5 | 60.9 | – | LQY (luminescent quantum yield) [5]: 10.9 ± 1.5%
5 | B5 | – | – | 19.3 | 19 | Km [6]: 30.3 µM; Vmax [6]: 7.1(6.2-8.4) ×10^−2 photon s^−1 molecule^−1
